US20100227824A1 (SYMTHERA CANADA, published 2010)

T1: IL-8 (CXCL8) (UniProt P10145 28-99, limits assumed)
T1 construct: also called IL-8(72aa); IL-8(77aa)
T1 sequence (looked up): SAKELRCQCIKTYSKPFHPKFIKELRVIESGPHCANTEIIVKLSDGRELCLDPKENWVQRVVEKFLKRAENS

T2: Mig (CXCL9) (UniProt Q07325 23-125)
T2 construct: Bought chemokine
T2 sequence (looked up): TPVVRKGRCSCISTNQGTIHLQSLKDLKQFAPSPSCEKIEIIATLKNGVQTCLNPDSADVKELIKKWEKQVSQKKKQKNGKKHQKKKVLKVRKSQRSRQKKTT

T3: IP-10 (CXCL10) (UniProt P02778 22-98)
T3 construct: Bought chemokine
T3 sequence (looked up): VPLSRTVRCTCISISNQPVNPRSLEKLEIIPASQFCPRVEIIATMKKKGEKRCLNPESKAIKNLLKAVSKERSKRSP

T4: I-TAC (CXCL11) (UniProt O14625 22-94)
T4 construct: Bought chemokine; also called I-TACK
T4 sequence (looked up): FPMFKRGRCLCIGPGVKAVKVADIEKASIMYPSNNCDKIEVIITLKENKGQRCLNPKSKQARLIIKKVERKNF

T5: I-309 (CCL1) (UniProt P22362 23-96, limits assumed)
T5 construct: Bought chemokine
T5 sequence (looked up): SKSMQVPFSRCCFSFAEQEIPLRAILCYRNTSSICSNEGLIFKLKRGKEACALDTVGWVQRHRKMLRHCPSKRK

T6: MCP-2 (CCL8) (UniProt P80075 24-99)
T6 construct: Bought chemokine
T6 sequence (looked up): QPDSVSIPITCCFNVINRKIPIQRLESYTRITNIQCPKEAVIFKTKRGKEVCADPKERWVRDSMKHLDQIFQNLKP

T7: RANTES (CCL5) (UniProt P13501 24-91)
T7 construct: Bought chemokine
T7 sequence (looked up): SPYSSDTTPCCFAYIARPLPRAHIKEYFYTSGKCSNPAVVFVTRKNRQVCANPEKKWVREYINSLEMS

T8: Eotaxin 2 (CCL24) (UniProt O00175 27-104, limits assumed)
T8 construct: Bought chemokine
T8 sequence (looked up): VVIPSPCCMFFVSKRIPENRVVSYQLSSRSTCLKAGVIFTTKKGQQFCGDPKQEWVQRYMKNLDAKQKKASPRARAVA

T9: Eotaxin 3 (CCL26) (UniProt Q9Y258 24-94)
T9 construct: Bought chemokine
T9 sequence (looked up): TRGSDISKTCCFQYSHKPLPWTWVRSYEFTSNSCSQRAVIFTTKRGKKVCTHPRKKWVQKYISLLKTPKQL

T10: MDC(69aa) (CCL22) (UniProt O00626 25-93)
T10 construct: Bought chemokine
T10 sequence (looked up): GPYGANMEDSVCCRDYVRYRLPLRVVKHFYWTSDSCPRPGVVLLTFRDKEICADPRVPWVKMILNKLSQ

T11: BCA-1 (CXCL13) (UniProt O43927 23-109)
T11 construct: Bought chemokine
T11 sequence (looked up): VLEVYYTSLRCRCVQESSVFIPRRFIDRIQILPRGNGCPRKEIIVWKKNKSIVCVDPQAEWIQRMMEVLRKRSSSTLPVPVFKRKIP

T12: Exodus-2 (CCL21) (UniProt O00585 24-134)
T12 construct: Bought chemokine
T12 sequence (looked up): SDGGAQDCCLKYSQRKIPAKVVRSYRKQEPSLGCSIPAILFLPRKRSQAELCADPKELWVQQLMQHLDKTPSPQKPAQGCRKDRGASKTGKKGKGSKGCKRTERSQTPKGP

T13: TECK (CCL25) (UniProt O15444 24-150)
T13 construct: Bought chemokine
T13 sequence (looked up): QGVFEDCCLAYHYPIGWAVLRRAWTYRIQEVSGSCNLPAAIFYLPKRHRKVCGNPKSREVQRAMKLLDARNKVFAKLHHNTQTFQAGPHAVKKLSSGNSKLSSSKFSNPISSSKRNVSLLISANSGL

T14: CTAC (CCL27) (UniProt Q9Y4X3 25-112)
T14 construct: Bought chemokine
T14 sequence (looked up): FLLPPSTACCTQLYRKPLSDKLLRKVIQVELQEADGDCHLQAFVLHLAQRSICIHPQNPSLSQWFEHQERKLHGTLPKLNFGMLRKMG

T15: Lymphotactin (XCL-1) (UniProt P47992 23-114, limits assumed)
T15 construct: Bought chemokine
T15 sequence (looked up): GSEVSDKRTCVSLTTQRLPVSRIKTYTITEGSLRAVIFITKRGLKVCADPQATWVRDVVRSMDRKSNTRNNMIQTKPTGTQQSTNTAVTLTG

B1: Phage-Presented Peptide 31 (Ph-p31) (peptide)
peptide: DYDYG
B2: Phage-Presented Peptide 30 (Ph-p30) (peptide)
peptide: DYDYGAPC
B3: Phage-Presented Peptide 8.77 (Ph-p8.77) (peptide)
peptide: WVFGVHFCK
B4: Phage-Presented Peptide 8.11 (Ph-p8.11) (peptide)
peptide: NAMCK

Target: T1, IL-8 (CXCL8)
Assay: micro-array, phage-presented peptide on printed CK
Experimental: (§1) (1) Printing: Chemokine (CK) solution (in water) was serially diluted with Print Reagent (GenTel BioSurfaces USA) to final concentrations of 50 μg and 25 μg/ml. BSA/BSA-Biotin control solutions (in water) were diluted with Print Reagent to 100 μg/ml. Amplified stock of M13 phage control (M13KEgIII Cloning Vector, New England Biolabs, Cat.No.E8101S) was stored in Tris Buffered Saline (TBS; pH7.5, 4° C.) and diluted with Print Reagent to the working titre (10^8 pfu/μl). An automated spotting robot (16 pin print tool, 0.4mm head; BioRobotics, UK) was used to print the CK/BSA control/M13 control, 5 repeats per sample (CK 25 μg/ml and 50 μg/ml; BSA 100 μg/ml; M13 20 μl), on PATH Protein Microarray Slides (GenTel, Prod.No.2-1005/-1025) at […], and 50-70% relative humidity. Printed micro-array slides were stored at Room Temperature (RT) or 4° C. for at least 24 h before use.
(§2) (2) Blocking: Block Buffer (500 μl/partition; PATHblock, GenTel, Prod.No.2-1014) was applied to the slide for 1 hour at room temp (RT). After removal of Block Buffer, the slide was air dried for 25 minutes;
(§3) (11) Analysis: Quantitative analysis of micro-array was performed by the SpotReader program of Niles Scientific (USA) and presented as Relative Fluorescence (RF) as a function of CK concentration. Micro-array readout (Cy3 fluorescence) was quantified to determine the relative binding affinities of a CBP for the CKs and by inference, the specificity of the CBP for binding to a CK.

Row | Binder | Relative Fluorescence Units (RFU)
1 | B1 | > 15000 RFU
2 | B2 | > 15000 RFU
3 | B3 | > 15000 RFU

Target: T2, Mig (CXCL9)
Assay: micro-array, phage-presented peptide on printed CK
Experimental: as §1, §2, §3

Row | Binder | Relative Fluorescence Units (RFU)
4 | B1 | > 15000 RFU
5 | B2 | > 15000 RFU
6 | B3 | > 15000 RFU

Target: T3, IP-10 (CXCL10)
Assay: micro-array, phage-presented peptide on printed CK
Experimental: as §1, §2, §3

Row | Binder | Relative Fluorescence Units (RFU)
7 | B4 | > 10000 RFU

Target: T4, I-TAC (CXCL11)
Assay: micro-array, phage-presented peptide on printed CK
Experimental: as §1, §2, §3

Row | Binder | Relative Fluorescence Units (RFU)
8 | B4 | > 10000 RFU
9 | B1 | > 15000 RFU
10 | B2 | > 15000 RFU
11 | B3 | > 15000 RFU

Target: T5, I-309 (CCL1)
Assay: micro-array, phage-presented peptide on printed CK
Experimental: as §1, §2, §3

Row | Binder | Relative Fluorescence Units (RFU)
12 | B1 | > 15000 RFU
13 | B2 | > 15000 RFU
14 | B3 | > 15000 RFU

Target: T16, MCP-1 (CCL2) (UniProt P13500 24-99)
T16 construct: Bought chemokine
T16 sequence (P13500 24-99 limits assumed): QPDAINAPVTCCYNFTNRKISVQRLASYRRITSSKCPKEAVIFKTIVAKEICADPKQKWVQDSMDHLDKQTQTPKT
Assay: micro-array, phage-presented peptide on printed CK
Experimental: as §1, §2, §3

Row | Binder | Relative Fluorescence Units (RFU)
15 | B1 | > 15000 RFU
16 | B2 | > 15000 RFU

Target: T6, MCP-2 (CCL8)
Assay: micro-array, phage-presented peptide on printed CK
Experimental: as §1, §2, §3

Row | Binder | Relative Fluorescence Units (RFU)
17 | B1 | > 15000 RFU
18 | B2 | > 15000 RFU
19 | B3 | > 15000 RFU

Target: T17, MCP-4 (CCL13) (UniProt Q99616 24-98)
T17 construct: Bought chemokine
T17 sequence (Q99616 24-98 limits assumed): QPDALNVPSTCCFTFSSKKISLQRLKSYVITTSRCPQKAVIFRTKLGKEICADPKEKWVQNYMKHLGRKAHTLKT
Assay: micro-array, phage-presented peptide on printed CK
Experimental: as §1, §2, §3

Row | Binder | Relative Fluorescence Units (RFU)
20 | B1 | > 15000 RFU
21 | B2 | > 15000 RFU
22 | B3 | > 15000 RFU

Target: T7, RANTES (CCL5)
Assay: micro-array, phage-presented peptide on printed CK
Experimental: as §1, §2, §3

Row | Binder | Relative Fluorescence Units (RFU)
23 | B1 | > 15000 RFU
24 | B2 | > 15000 RFU

Target: T18, Eotaxin (CCL11) (UniProt P51671 24-97)
T18 construct: Bought chemokine
T18 sequence (P51671 24-97 limits assumed): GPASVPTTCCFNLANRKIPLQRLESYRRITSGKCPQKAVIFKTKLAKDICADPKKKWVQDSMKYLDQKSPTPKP
Assay: micro-array, phage-presented peptide on printed CK
Experimental: as §1, §2, §3

Row | Binder | Relative Fluorescence Units (RFU)
25 | B1 | > 15000 RFU
26 | B2 | > 15000 RFU

Target: T8, Eotaxin 2 (CCL24)
Assay: micro-array, phage-presented peptide on printed CK
Experimental: as §1, §2, §3

Row | Binder | Relative Fluorescence Units (RFU)
27 | B1 | > 15000 RFU
28 | B2 | > 15000 RFU

Target: T9, Eotaxin 3 (CCL26)
Assay: micro-array, phage-presented peptide on printed CK
Experimental: as §1, §2, §3

Row | Binder | Relative Fluorescence Units (RFU)
29 | B4 | > 10000 RFU
30 | B1 | > 15000 RFU
31 | B2 | > 15000 RFU
32 | B3 | > 15000 RFU

Target: T10, MDC(69aa) (CCL22)
Assay: micro-array, phage-presented peptide on printed CK
Experimental: as §1, §2, §3

Row | Binder | binding result
33 | B2 | binds

Target: T19, SDF-1α (CXCL12) (UniProt P48061-2 22-89)
T19 construct: Alpha isoform of CXCL12; also called SDFα
T19 sequence (P48061 22-89 limits assumed): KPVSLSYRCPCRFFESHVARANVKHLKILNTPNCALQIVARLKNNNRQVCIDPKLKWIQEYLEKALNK
Assay: micro-array, phage-presented peptide on printed CK
Experimental: as §1, §2, §3

Row | Binder | binding result
34 | B4 | binds
35 | B1 | binds
36 | B2 | binds

Target: T20, SDF-1β (CXCL12) (UniProt P48061 22-93)
T20 construct: Beta isoform of CXCL12; also called SDFβ
T20 sequence (P48061 22-93 limits assumed): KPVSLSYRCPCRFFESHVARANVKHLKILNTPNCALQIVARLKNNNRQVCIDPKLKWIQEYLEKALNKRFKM
Assay: micro-array, phage-presented peptide on printed CK
Experimental: as §1, §2, §3

Row | Binder | binding result
37 | B4 | binds
38 | B1 | binds
39 | B2 | binds
40 | B3 | binds

Target: T11, BCA-1 (CXCL13)
Assay: micro-array, phage-presented peptide on printed CK
Experimental: as §1, §2, §3

Row | Binder | binding result
41 | B4 | binds
42 | B1 | binds
43 | B2 | binds
44 | B3 | binds

Target: T12, Exodus-2 (CCL21)
Assay: micro-array, phage-presented peptide on printed CK
Experimental: as §1, §2, §3

Row | Binder | binding result
45 | B4 | binds
46 | B1 | binds
47 | B2 | binds

Target: T13, TECK (CCL25)
Assay: micro-array, phage-presented peptide on printed CK
Experimental: as §1, §2, §3

Row | Binder | binding result
48 | B4 | binds
49 | B1 | binds
50 | B2 | binds
51 | B3 | binds

Target: T14, CTAC (CCL27)
Assay: micro-array, phage-presented peptide on printed CK
Experimental: as §1, §2, §3

Row | Binder | binding result
52 | B4 | binds
53 | B2 | binds

Target: T15, Lymphotactin (XCL-1)
Assay: micro-array, phage-presented peptide on printed CK
Experimental: as §1, §2, §3

Row | Binder | binding result
54 | B1 | binds
55 | B2 | binds
